Three proteins from US20070092942 can be followed below.

Where a chain is given by its changes, count along the chain named. Numbers in names are those of the source.

Data set [1] has as its target His-tagged Lys^63-linked polyubiquitin, P0CG47.
The target of data set [2] is isopeptide-linked Nedd8-peptide conjugate, Q15843.
Data set [3] deals with isopeptide-linked SUMO-1-peptide conjugate, P63165.
The target of data set [4] is isopeptide-linked Ub-peptide conjugate, P0CG47.
Data set [5] addresses His-tagged Lys^48-linked polyubiquitin, P0CG47.
In data set [6] the target is Ub C-terminal 7-amido-4-methylcoumarin, P0CG47.
Sequence of Ub C-terminal 7-amido-4-methylcoumarin, P0CG47 (P0CG47 whole entry, looked up): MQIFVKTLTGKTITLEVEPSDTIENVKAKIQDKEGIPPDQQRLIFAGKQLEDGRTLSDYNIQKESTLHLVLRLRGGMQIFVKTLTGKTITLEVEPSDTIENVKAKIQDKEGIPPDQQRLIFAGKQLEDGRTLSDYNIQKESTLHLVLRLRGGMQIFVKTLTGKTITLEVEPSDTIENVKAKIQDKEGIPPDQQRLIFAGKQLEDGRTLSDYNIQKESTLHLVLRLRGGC
Data set [7] addresses isopeptide-linked ISG15-peptide conjugate, P05161.

Sequence of His-tagged Lys^48-linked polyubiquitin, P0CG47 (P0CG47 whole entry, looked up): as above
Sequence of isopeptide-linked Ub-peptide conjugate, P0CG47 (P0CG47 whole entry, looked up, tested part not stated): as the sequence (P0CG47 whole entry, looked up) above
Sequence of His-tagged Lys^63-linked polyubiquitin, P0CG47 (P0CG47 whole entry, looked up): as above
Sequence of isopeptide-linked Nedd8-peptide conjugate, Q15843 (Q15843 whole entry, looked up, tested part not stated): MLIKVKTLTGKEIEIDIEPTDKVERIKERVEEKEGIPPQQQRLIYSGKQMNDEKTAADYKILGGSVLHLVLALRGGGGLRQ
Sequence of isopeptide-linked SUMO-1-peptide conjugate, P63165 (P63165 1-97): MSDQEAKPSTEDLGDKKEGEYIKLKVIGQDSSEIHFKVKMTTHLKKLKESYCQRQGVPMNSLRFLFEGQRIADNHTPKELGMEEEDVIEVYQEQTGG
Sequence of isopeptide-linked ISG15-peptide conjugate, P05161 (P05161 1-157): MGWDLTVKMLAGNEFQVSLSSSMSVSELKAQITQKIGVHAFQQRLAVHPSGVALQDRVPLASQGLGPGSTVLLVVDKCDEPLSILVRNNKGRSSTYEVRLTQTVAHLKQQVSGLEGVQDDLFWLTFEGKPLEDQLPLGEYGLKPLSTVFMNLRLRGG

B1: His6UL36^USP (protein)
chain: MGGGNNTNPGGPVHKQAGSLASRAHMIAGTPPHSTMERGGDRDIVVTGARNQFAPDLEPGGSVSCMRSSLSFLSLIFDVGPRDVLSAEAIEGCLVEGGEWTRATAGPGPPRMCSIVELPNFLEYPGARGGLRCVFSRVYGEVGFFGEPAAGLLETQCPAHTFFAGPWALRPLSYTLLTIGPLGMGLFRDGDTAYLFDPHGLPEGTPAFIAKVRAGDMYPYLTYYTRDRPDVRWAGAMVFFVPSGPEPAAPADLTAAALHLYGASETYLQDEAFSERRVAITHPLRGEIAGLGEPCVGVGPREGVGGPGPHPPTAAQSPPPTRARRDDRASETSRGTAGPSAKPEAKRPNRAPDDVWAVALKGTPPTDPPSADPPSADPPSAIPPPPPSAPKTPAAEAAEEDDDDMRVLEMGVVPVGRHRARYSAGLPKRRRPTWTPPSSVEDLTSGEKTKRSAPPAKTKKKSTPKGKTPVGAAVPASVPEPVLASAPPDPAGPPVAEAGEDDGPTVPASSQALEALKTRRSPEPPGADLAQLF
With B1, the “polyubiquitin chain depolymerization, anti-His immunoblot” value is on record as “The failure of UL36^USP to cleave Lys^63-linked polyUb” in data set [1] and “we observed deubiquitination of Lys^48-linked polyUb only” in data set [5]. Further, the “isopeptidase assay, loss of biotin signal” value is “Isopeptide-linked conjugates of Nedd8, ISG15 or SUMO-1 are not substrates for UL36^USP” in data set [2]; “Isopeptide-linked conjugates of Nedd8, ISG15 or SUMO-1 are not substrates for UL36^USP” in data set [3]; “results in cleavage of the Ub-peptide conjugate only” in data set [4]; “Isopeptide-linked conjugates of Nedd8, ISG15 or SUMO-1 are not substrates for UL36^USP” in data set [7]. For the same protein, the “Ub-AMC cleavage, turnover number” value in data set [6] is around 6 min⁻¹.

B2: EBV205 (protein)
chain: MSNGDWGQSQRTRGTGPVRGIRTMDVNAPGGGSGGSALRILGTASCNQAHCKFGRFAGIQCVSNCVLYLVKSFLAGRPLTSRPELDEVLDEGARLDALMRQSGILKGHEMAQLTDVPSSVVLRGGGRVHIYRSAEIFGLVLFPAQIANSAVVQSLAEVLHGSYNGVAQFILYICDIYAGAIIIETDGSFYLFDPHCQKDAAPGTP
On to B2, for which, in data set [6], the UbAMC hydrolysis entry is recorded as “efficiently hydrolyzed UbAMC”.

B3: EBV205 C61A (protein)
chain: B2 chain with C61A
For the protein B3, in data set [6], the UbAMC hydrolysis result is given as “absent in the case of active site mutants”.
